Data taken from patent US7628975B2, “Compositions and methods for detecting and quantifying COX-2 activity and 2-arachidonylgycerol metabolites” (Vanderbilt University, priority 2000, dated 2009).

Columns and labels:
[1] = tested on: RAW264.7 cells; assay: Exogenous 2-AG metabolism to PGD2-G by RAW264.7 cells (LC/MS); assay type: cell-based, murine; conditions: inhibitor 3 μM, activated RAW264.7 cells, 2-AG 20 μM
Method: Briefly, macrophages (30-50% confluence) are activated with IFN-γ (10 units/mL) and LPS (1 μg/mL) in serum-free DMEM for 7 hr at 37° C. prior to treatment. Activated RAW264.7 cell media are aspirated and replaced with fresh serum-free DMEM or PBS. […] After 30 min, medium or PBS is removed and extracted two times with an equal volume of CHCl3:MeOH (2:1). The solvent is evaporated and the residue is dissolved in 1 mL H2O:MeCN (95:5) and applied to a water-charged C18 solid phase extraction column (Varian). Following a water wash, glyceryl prostaglandins are eluted with H2O:MeCN (3:7). The eluant is lyophilized, dissolved in H2O:MeCN (1:1), and subjected to LC/MS analysis. […] Activated RAW264.7 cell medium is aspirated and replaced with fresh serum-free DMEM. […] After 20 min, medium is removed and the cells are treated with 8.0 ng pentadeuterated glyceryl prostaglandin standard. Medium is collected and extracted two times with an equal volume of CHCl3:MeOH (2:1). The solvent is evaporated and the residue is redissolved in H2O:MeCN (1:1), filtered (0.22 μm nylon), and subjected to LC/MS analysis.

[2] = buffer
Method: Then, a metabolite of the COX-2 selective substrate, such as PGH2-G, is measured.

[3] = target: T1, COX-2 (Homo sapiens, UniProt P35354); assay: HPLC/UV quantification of products in base-treated COX-2/2-AG incubation mixtures; assay type: biochemical; conditions: COX-2 oxygenation of 2-AG, n=5
T1 sequence (P35354 18-604): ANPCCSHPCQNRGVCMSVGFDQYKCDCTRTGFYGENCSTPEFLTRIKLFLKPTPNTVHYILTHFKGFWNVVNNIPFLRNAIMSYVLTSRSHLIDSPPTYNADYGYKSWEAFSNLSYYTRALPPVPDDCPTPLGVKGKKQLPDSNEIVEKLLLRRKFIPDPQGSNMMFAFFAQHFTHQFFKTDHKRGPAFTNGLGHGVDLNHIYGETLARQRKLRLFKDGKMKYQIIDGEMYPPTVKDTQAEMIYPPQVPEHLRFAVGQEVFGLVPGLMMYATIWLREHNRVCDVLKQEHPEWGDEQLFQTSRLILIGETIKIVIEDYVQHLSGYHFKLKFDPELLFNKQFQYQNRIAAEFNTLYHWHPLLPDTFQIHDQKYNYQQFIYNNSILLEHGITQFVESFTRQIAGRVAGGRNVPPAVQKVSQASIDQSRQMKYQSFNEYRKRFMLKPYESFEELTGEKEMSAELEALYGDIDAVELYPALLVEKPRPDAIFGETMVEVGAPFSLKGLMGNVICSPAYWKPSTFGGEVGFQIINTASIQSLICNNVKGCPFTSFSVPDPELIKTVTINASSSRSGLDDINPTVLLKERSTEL
Method: Estimates of relative amounts of the individual PG-Gs can be made by reversed-phase HPLC with UV detection. […] Quantification of PGE2-G and HETE-Gs is accomplished by HPLC/UV analysis of base-treated COX-2/2-AG incubation mixtures using 5-HETE as an internal standard. PGE2-G is the major product of oxygenation (PGE2-G/HETE-G=4.0±0.1, n=5) and 11-HETE-G is more abundant than 15-HETE-G (11-HETE-G/15-HETE-G=3.4±0.1, n=5). HETE-G regiochemistry is confirmed by mass spectrometry of saponified, HPLC-purified HETE products.

[4] = substrate: CCCCC/C=C\C/C=C\C/C=C\C/C=C\CCCCOC(CO)CO; assay: Steady-state kinetics of COX-2 mediated oxygenation (O2 uptake), human enzyme; assay type: biochemical; conditions: other: hCOX-2, substrate oxygenation
Method: (§1) The ability of COX-1 and COX-2 to metabolize different substrates, such as 2-AG and arachidonic acid (AA) can be determined, for example, by measuring relative oxygen uptake. FIG. 9 is a representative oxygen uptake curve for 100 μM 2-AG or AA treated with 150 nM purified COX-2 or 150 nM ovine COX-1. The horizontal bar represents 20-seconds. The vertical bar represents 10 μM O2 uptake.

[5] = substrate: CCCCC/C=C\C/C=C\C/C=C\C/C=C\CCCC(=O)O; assay: as above; assay type: biochemical; conditions: other: hCOX-2, substrate oxygenation
Method: as §1

[6] = substrate: CCCCC/C=C\C/C=C\C/C=C\C/C=C\CCCCOC(CO)CO; assay: Steady-state kinetics of COX-2 mediated oxygenation (O2 uptake), murine enzyme; assay type: biochemical; conditions: other: mCOX-2, substrate oxygenation
Method: as §1

[7] = substrate: CCCCC/C=C\C/C=C\C/C=C\C/C=C\CCCC(=O)O; assay: as above; assay type: biochemical; conditions: other: mCOX-2, substrate oxygenation
Method: as §1

## COc1ccc2c(c1)c(CC(=O)NCCc1ccccc1)c(C)n2C(=O)c1ccc(Cl)cc1 [indomethacin phenethylamide, 2-[1-(4-chlorobenzoyl)-5-methoxy-2-methyl-1H-indol-3-yl]-N-phenethylacetamide]
[1]
  Effect on PGD2-G biosynthesis: inhibited

## CCCCC[C@H](O)/C=C/[C@@H]1[C@@H](C/C=C\CCCC(=O)OC(CO)CO)[C@@H]2C[C@H]1OO2 [PGH2-G, prostaglandin H2-glycerol ester]
[2]
  half-life in aqueous solution: approximately 20 seconds

## COc1ccc2c(c1)c(CC(=O)O)c(C)n2C(=O)c1ccc(Cl)cc1 [indomethacin]
[1]
  Effect on PGD2-G biosynthesis: inhibited

## CCCCC[C@H](O)/C=C/[C@H]1[C@H](O)CC(=O)[C@@H]1C/C=C\CCCC(=O)OCC(O)CO (some centres unmarked) [PGE2-G, prostaglandin E2-glycerol ester]
[3]
  PGE2-G/HETE-G product ratio: 4.0±0.1

## CCCCCC=CC=CC(O)CC=CCC=CCCCC(=O)OC(CO)CO (centres unmarked) [11-HETE-G, 11-hydroxy-eicosatetranoic glycerol ester]
[3]
  11-HETE-G/15-HETE-G product ratio: 3.4±0.1

B1: hCOX-2 (Homo sapiens) (protein)
chain: T1 sequence (P35354 18-604)
[4]
  Km: 4.4 ± 0.9 µM
  kcat: 17.4 ± 1.1 s⁻¹
  kcat/Km: 4e+06 M⁻¹ s⁻¹
[5]
  Km: 6.1 ± 0.6 µM
  kcat: 14.7 ± 0.5 s⁻¹
  kcat/Km: 2.4e+06 M⁻¹ s⁻¹

B2: mCOX-2 (Mus musculus) (protein)
chain: ANPCCSNPCQNRGECMSTGFDQYKCDCTRTGFYGENCTTPEFLTRIKLLLKPTPNTVHYILTHFKGVWNIVNNIPFLRSLIMKYVLTSRSYLIDSPPTYNVHYGYKSWEAFSNLSYYTRALPPVADDCPTPMGVKGNKELPDSKEVLEKVLLRREFIPDPQGSNMMFAFFAQHFTHQFFKTDHKRGPGFTRGLGHGVDLNHIYGETLDRQHKLRLFKDGKLKYQVIGGEVYPPTVKDTQVEMIYPPHIPENLQFAVGQEVFGLVPGLMMYATIWLREHNRVCDILKQEHPEWGDEQLFQTSRLILIGETIKIVIEDYVQHLSGYHFKLKFDPELLFNQQFQYQNRIASEFNTLYHWHPLLPDTFNIEDQEYSFKQFLYNNSILLEHGLTQFVESFTRQIAGRVAGGRNVPIAVQAVAKASIDQSREMKYQSLNEYRKRFSLKPYTSFEELTGEKEMAAELKALYSDIDVMELYPALLVEKPRPDAIFGETMVELGAPFSLKGLMGNPICSPQYWKPSTFGGEVGFKIINTASIQSLICNNVKGCPFTSFNVQDPQPTKTATINASASHSRLDDINPTVLIKRRSTEL
[6]
  Km: 4.7 ± 0.8 µM
  kcat: 11.1 ± 0.7 s⁻¹
  kcat/Km: 2.3e+06 M⁻¹ s⁻¹
[7]
  Km: 8.2 ± 1.6 µM
  kcat: 20.5 ± 1.6 s⁻¹
  kcat/Km: 2.5e+06 M⁻¹ s⁻¹
